Test [1] has as its target huFXII-his (human) (UniProt P00748). The test can be described thus: cell-based or functional assay.
Test [2] shares this target. As to the kind of experiment: ELISA, huFXII-his coated at 1 µg/ml, HRP anti-human secondary, OD450.

Sequence of huFXII-his (human) (P00748 20-615, form in doubt): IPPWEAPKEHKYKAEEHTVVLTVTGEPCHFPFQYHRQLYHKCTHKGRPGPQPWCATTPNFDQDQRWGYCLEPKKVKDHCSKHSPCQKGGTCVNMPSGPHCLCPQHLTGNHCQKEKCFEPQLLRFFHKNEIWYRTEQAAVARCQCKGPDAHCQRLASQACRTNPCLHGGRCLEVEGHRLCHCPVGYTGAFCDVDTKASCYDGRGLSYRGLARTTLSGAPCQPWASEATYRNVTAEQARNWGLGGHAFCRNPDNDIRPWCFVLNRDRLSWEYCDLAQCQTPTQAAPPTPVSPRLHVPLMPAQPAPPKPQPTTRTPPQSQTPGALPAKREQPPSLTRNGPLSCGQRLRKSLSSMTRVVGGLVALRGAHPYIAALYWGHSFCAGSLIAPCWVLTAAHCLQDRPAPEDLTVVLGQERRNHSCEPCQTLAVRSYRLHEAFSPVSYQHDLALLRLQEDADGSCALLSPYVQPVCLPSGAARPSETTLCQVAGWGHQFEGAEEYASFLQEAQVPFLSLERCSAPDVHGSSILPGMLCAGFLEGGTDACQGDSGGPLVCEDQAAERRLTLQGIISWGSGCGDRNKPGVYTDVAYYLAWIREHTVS

B1: FX-Y17-Y2 (antibody, V domains shown)
VH: EVQLLESGGGLVQPGGSLRLSCAGSGFSFGSQTMSWVRQAPGKGLEWVSSISHISGRTYYADSVKGRFTISRDNSKNTLYLQMNSLRAEDTAVYYCTKSHAFDVWGQGTMVTVSS
VL: EIVLTQSPATLSVSPGERATLSCRASQSVYSALAWYQQKPGQAPRLLIYGASTRATGIPARFSGSGSGTEFTLTISSLQSEDFAVYYCQQNNKWPLSFGGGTKVEIK
As usually defined, the EC50 is the midpoint of the concentration-response curve. A high value points to lower potency in that assay. On to B1, for which the IC50 of inhibition of cleavage of chemical substrate S2302 by FXIIa (OD405) with huFXII-his (human) [1] came out at 0.0178 mg/L. In the test with huFXII-his (human) [2], the EC50 came to 0.164 mg/L.

B2: FX-Y17-Y3 (antibody, V domains shown)
VH: EVQLLESGGGLVQPGGSLRLSCAGSGFSFGSQTMSWVRQAPGKGLEWVSSISYISGRTYYADSVKGRFTISRDNSKNTLYLQMNSLRAEDTAVYYCTKSHAFDVWGQGTMVTVSS
VL: EIVLTQSPATLSVSPGERATLSCRASQSVWSNLAWYQQKPGQAPRLLIYGASTRATGIPARFSGSGSGTEFTLTISSLQSEDFAVYYCQQYHKWPLSFGGGTKVEIK
Take B2: the IC50 of inhibition of cleavage of chemical substrate S2302 by FXIIa (OD405) with huFXII-his (human) [1] turned out to be 0.0154 mg/L. This molecule also returned an EC50 with huFXII-his (human) [2] of 0.216 mg/L.

B3: FX-Y17-Y5 (antibody, V domains shown)
VH: EVQLLESGGGLVQPGGSLRLSCAGSGFSFGSQTMSWVRQAPGKGLEWVSSISVISGRYYYADSVKGRFTISRDNSKNTLYLQMNSLRAEDTAVYYCTKSHAFDVWGQGTMVTVSS
VL: EIVLTQSPATLSVSPGERATLSCRASQSVYSALAWYQQKPGQAPRLLIYGASTRATGIPARFSGSGSGTEFTLTISSLQSEDFAVYYCQQYHKWPLSFGGGTKVEIK
On to B3, for which the IC50 of inhibition of cleavage of chemical substrate S2302 by FXIIa (OD405) with huFXII-his (human) [1] was 0.0254 mg/L. The molecule further gave an EC50 with huFXII-his (human) [2] of 0.167 mg/L.

B4: FX-Y17-Y30 (antibody, V domains shown)
VH: EVQLLESGGGLVQPGGSLRLSCAGSGFSFGSQTMSWVRQAPGKGLEWVSSISVISGRTYYADSVKGRFTISRDNSKNTLYLQMNSLRAEDTAVYYCAKSHAFDVWGQGTMVTVSS
VL: EIVLTQSPATLSVSPGERATLSCRASQSVFSNLAWYQQKPGQAPRLLIYGASTRATGIPARFSGSGSGTEFTLTISSLQSEDFAVYYCQQYHWWPLSFGGGTKVEIK
Take B4: the IC50 of inhibition of cleavage of chemical substrate S2302 by FXIIa (OD405) with huFXII-his (human) [1] was 0.0127 mg/L. The molecule also yielded an EC50 with huFXII-his (human) [2] of 0.083 mg/L.

B5: FX-Y17-Y8 (antibody, V domains shown)
VH: EVQLLESGGGLVQPGGSLRLSCAGSGFSFGSQTMSWVRQAPGKGLEWVSSISVISRRTYYADSVKGRFTISRDNSKNTLYLQMNSLRAEDTAVYYCTKSHAFDVWGQGTMVTVSS
VL: EIVLTQSPATLSVSPGERATLSCRASQSVWSNLAWYQQKPGQAPRLLIYGASTRATGIPARFSGSGSGTEFTLTISSLQSEDFAVYYCQQYHKWPLSFGGGTKVEIK
Molecule B5 gave an IC50 of inhibition of cleavage of chemical substrate S2302 by FXIIa (OD405) with huFXII-his (human) [1] of 0.0196 mg/L. This molecule also registered an EC50 with huFXII-his (human) [2] of 0.237 mg/L.

B6: FX-Y17-Y31 (antibody, V domains shown)
VH: EVQLLESGGGLVQPGGSLRLSCAGSGFSFGSQTMSWVRQAPGKGLEWVSSISVISGRNYYADSVKGRFTISRDNSKNTLYLQMNSLRAEDTAVYYCAKSHAFDVWGQGTMVTVSS
VL: EIVLTQSPATLSVSPGERATLSCRASQSVWSNLAWYQQKPGQAPRLLIYGASTRATGIPARFSGSGSGTEFTLTISSLQSEDFAVYYCQQYHKWPLSFGGGTKVEIK
With B6, the IC50 of inhibition of cleavage of chemical substrate S2302 by FXIIa (OD405) with huFXII-his (human) [1] was found to be 0.0156 mg/L. This molecule yielded an EC50 with huFXII-his (human) [2] of 0.117 mg/L.

B7: FX-Y17-Y7 (antibody, V domains shown)
VH: EVQLLESGGGLVQPGGSLRLSCAGSGFSFGSQTMSWVRQAPGKGLEWVSSISVISGRAYYADSVKGRFTISRDNSKNTLYLQMNSLRAEDTAVYYCTKSHAFDVWGQGTMVTVSS
VL: EIVLTQSPATLSVSPGERATLSCRASQSVYSALAWYQQKPGQAPRLLIYGASTRATGIPARFSGSGSGTEFTLTISSLQSEDFAVYYCQQYHKWPLSFGGGTKVEIK
B7 had an IC50 of inhibition of cleavage of chemical substrate S2302 by FXIIa (OD405) with huFXII-his (human) [1] of 0.02 mg/L. Further, the EC50 with huFXII-his (human) [2] stood at 0.136 mg/L.

For the origin of these results see EP4729546A1 (Jiangsu BioJeTay Biotechnology Co., Ltd., dated 2026).
